From US20240181125A1 (WASHINGTON UNIVERSITY, published 2024)
Primed or numbered codes have the meaning given here. Ends that are not written are not given here. FITC′ = not defined here

Experiments:
[1] = target: T1, TGFβ receptor II (TβR2) on human dermal fibroblasts (HDFs) (human, UniProt P37173 23-567); assay: immunofluorescence of HDFs with anti-TβR2 antibody and FITC signal of the peptide
T1 construct: whole, on cells; Endogenous receptor on HDFs cultured at 4.5 g/L glucose; also called TGFβRII
T1 sequence (P37173 23-567): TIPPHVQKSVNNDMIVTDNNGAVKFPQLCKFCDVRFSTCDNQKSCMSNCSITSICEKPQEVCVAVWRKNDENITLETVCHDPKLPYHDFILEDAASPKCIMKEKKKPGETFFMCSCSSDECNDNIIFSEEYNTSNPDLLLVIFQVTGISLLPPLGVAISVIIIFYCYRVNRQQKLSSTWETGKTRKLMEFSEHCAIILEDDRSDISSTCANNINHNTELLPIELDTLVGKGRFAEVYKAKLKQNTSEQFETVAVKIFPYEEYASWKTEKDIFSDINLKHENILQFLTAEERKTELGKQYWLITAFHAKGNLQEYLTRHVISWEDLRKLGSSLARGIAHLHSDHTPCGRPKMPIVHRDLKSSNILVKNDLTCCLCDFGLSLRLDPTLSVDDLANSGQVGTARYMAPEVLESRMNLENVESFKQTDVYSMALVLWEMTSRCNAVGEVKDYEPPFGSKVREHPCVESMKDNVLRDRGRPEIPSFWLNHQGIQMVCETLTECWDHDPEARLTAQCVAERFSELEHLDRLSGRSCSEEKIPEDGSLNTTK

[2] = target: T2, TGFβ receptor II (TβR2), R&D, coated on ELISA plate; assay: ELISA-like binding assay, receptor coated on plate, FITC fluorescence of bound peptide
T2 construct: Bought protein (R&D), coated at 20 nM; also called TGFβRII; TβRII
T2 sequence (P37173 whole entry): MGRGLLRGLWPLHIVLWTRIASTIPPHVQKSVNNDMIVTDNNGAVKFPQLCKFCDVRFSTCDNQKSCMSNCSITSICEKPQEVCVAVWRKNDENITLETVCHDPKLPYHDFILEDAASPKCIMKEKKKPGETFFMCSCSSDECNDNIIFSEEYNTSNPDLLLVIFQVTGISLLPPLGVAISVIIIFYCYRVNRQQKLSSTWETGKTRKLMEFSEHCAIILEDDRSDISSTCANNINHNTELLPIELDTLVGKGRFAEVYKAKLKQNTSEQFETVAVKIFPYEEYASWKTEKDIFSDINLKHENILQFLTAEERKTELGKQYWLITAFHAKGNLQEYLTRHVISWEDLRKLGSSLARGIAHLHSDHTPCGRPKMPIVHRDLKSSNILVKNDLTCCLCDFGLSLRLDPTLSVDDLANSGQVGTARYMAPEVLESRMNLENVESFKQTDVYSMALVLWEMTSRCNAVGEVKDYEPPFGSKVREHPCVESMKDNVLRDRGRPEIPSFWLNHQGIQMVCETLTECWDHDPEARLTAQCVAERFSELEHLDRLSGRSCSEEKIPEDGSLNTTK
Source text: We synthesized a peptide […]-FITC (PTβR2I), based on the sequence from a phage display library that binds specifically to […] and interactions between TβR2 and TGFβ1.63-65 We first examined the specific binding of PTβR2I with TβR2 using an ELISA-like binding assay. TGFβ receptor I (TβR1), TGFβ receptor III (TβR3), and IgG were used as controls. […] This finding was further validated on the cellular level. We used human dermal fibroblasts (HDFs) to study the binding affinity of PTβR2I to TβR2 under a glucose level of 4.5 g/L, which mimics the hyperglycemic conditions of diabetes. With PTβR2I added, the HDF binding sites on HDF of TβR2 were occupied, so the TβR2 could not be detected by immunofluorescence (FIG. 5F).
To test the ability of PTβR2I to bind to TβR2, a binding assay was performed. TβR1, TβR3, and IgG were used as controls. In brief, ELISA plates (Costar) were coated with 20 nM of TβR2 (R&D), TβR1 (R&D), or IgG (R&D) and incubated at 4° C. overnight. The plate was blocked with Tris-buffered Saline (TBS) containing 5% bovine serum albumin (BSA) for 1 hour. Then PTβR2I (0.5 μg/mL) was added to the plate and incubated for 2 hours. The fluorescence intensity was read by a microplate reader (Molecular Devices) with a predefined wavelength (excitation/emission=485/535 nm).

binding result [1]: binds | Kd [2]: 3.4 µM
Binder: ECGLLPVGRPDRVWRLCK-{FITC′} (cysteine pairing not given here) [peptide-based TGFβ receptor II inhibitor (PTβR2I), ECGLLPVGRPDRVWRLCK-FITC]
